Square brackets hold non-standard residues; d marks the D form. Ends that are not written are not given here. * marks the point of attachment. 5FAM = O=C1OC2(c3ccc(O)cc3Oc3cc(O)ccc32)c2ccc(C(=O)*)cc21; pY = N[C@@H](Cc1ccc(OP(=O)(O)O)cc1)C(=O)O
Experiments:
Test in all cases: fluorescence polarisation; SH2 domain titrated into 5-FAM-labelled peptide (20 nM CD28, YSLV, pYSLV; 40 nM YSLM, pYSLM), 298 K, 96-well plates, single site binding isotherm
Details in all cases: both partners purified
[1] = target: T1, p85β nSH2 (312–425) (mouse, UniProt O08908 312-425)
T1 construct: PI3K regulatory subunit p85β, mouse, N-terminal SH2 domain, residues 312-425; also called nSH2 domain of p85β; WT nSH2 domain of p85β; source: E. coli, purified (Ni-NTA, HRV 3C cleavage, size exclusion); not shown: His6, N-terminal, cleaved; MBP, N-terminal, cleaved
T1 sequence (O08908 312-425): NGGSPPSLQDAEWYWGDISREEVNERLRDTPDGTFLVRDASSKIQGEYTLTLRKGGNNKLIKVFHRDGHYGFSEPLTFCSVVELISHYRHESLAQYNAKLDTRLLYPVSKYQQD

[2] = target: T2, p85α nSH2 R358M (human, UniProt P27986 325-430, R358M)
T2 construct: PI3K regulatory subunit p85α, human, N-terminal SH2 domain, residues 325-430, with R358M; also called R358M variant; R358M SH2–null mutant; source: E. coli, purified
T2 sequence (P27986 325-430 R358M): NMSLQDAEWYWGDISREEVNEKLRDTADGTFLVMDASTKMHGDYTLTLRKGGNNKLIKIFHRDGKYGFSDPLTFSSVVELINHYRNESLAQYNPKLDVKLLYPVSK

[3] = target: T3, p85α cSH2 (614–720) (human, UniProt P27986 614-720)
T3 construct: PI3K regulatory subunit p85α, human, C-terminal SH2 domain, residues 614-720; also called cSH2 domain of p85α; source: E. coli, purified (glutathione-agarose, HRV 3C cleavage, S75 size exclusion)
T3 sequence (P27986 614-720): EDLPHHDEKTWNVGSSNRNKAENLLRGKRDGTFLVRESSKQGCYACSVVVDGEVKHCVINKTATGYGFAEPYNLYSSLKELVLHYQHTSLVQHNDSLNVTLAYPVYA

[4] = target: T4, p85α nSH2 (325–430) (human, UniProt P27986 325-430)
T4 construct: PI3K regulatory subunit p85α, human, N-terminal SH2 domain, residues 325-430; also called nSH2 domain of p85α; WT nSH2 domain of p85α; source: E. coli, purified (glutathione-agarose, HRV 3C cleavage, S75 size exclusion)
T4 sequence (P27986 325-430): as the sequence (P27986 325-430 R358M) above, with M34R counted along it

[5] = target: T5, p85β cSH2 (603–712) (mouse, UniProt O08908 603-712)
T5 construct: PI3K regulatory subunit p85β, mouse, C-terminal SH2 domain, residues 603-712; also called cSH2 domain of p85β; source: E. coli, purified (glutathione-agarose, HRV 3C cleavage, S75 size exclusion)
T5 sequence (looked up): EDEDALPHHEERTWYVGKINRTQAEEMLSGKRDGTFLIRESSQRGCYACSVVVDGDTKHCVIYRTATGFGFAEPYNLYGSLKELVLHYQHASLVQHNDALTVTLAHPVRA

B1: [5-FAM]-TEDQ-[pY]-SLMEDE, phosphorylated peptide based on p85β (peptide)
peptide: 5FAM-TEDQ[pY]SLMEDE
notes: also called β peptide; p85β (pYSLM) peptide; source: synthetic peptide; bought: Cambridge Research Biochemicals
- Kd [1]: 52 nM
- Kd [2]: 2900 nM
- Kd [3]: 656 nM
- Kd [4]: 82 nM

B2: [5-FAM]-TEDQ-[pY]-SLVEDE, phosphorylated peptide based on p85α (peptide)
peptide: 5FAM-TEDQ[pY]SLVEDE
notes: also called α peptide; p85α (pYSLV) peptide; source: synthetic peptide; bought: Biomatik
- Kd [1]: 9000 nM
- Kd [3]: 84000 nM
- Kd [4]: 2400 nM

B3: [5-FAM]-SD-[pY]-MNMTP, CD28 peptide (peptide)
peptide: 5FAM-SD[pY]MNMTP
notes: Known p85 SH2 target peptide from CD28; also called control peptide from CD28; source: synthetic peptide; bought: Biomatik
- Kd [5]: 100 nM
- Kd [3]: 43 nM

Source: article PMC9127371, “Assembly of nuclear dimers of PI3K regulatory subunits is regulated by the Cdc42-activated tyrosine kinase ACK” (The Journal of Biological Chemistry, 2022)
